Assay results taken from publication PMC2517984, “TatBC, TatB, and TatC form structurally autonomous units within the twin arginine protein transport system of Escherichia coli” (Febs Letters, 2007).

Assays:
[1] = target: T1, TatC with a hexa-histidine tag on the C-terminus, co-produced with TatB (with or without TatA, TatD, TatE) (Escherichia coli, UniProt P69423 1-258); test: co-purification by Ni(II) affinity chromatography + SEC; TatCHis-containing complexes from digitonin-solubilized membranes of strain DADE producing TatABCHisDE; Ni(II) HiTrap column, then Superose 6 in 20 mM MOPS-HCl pH 7.2, 200 mM NaCl, 0.1% digitonin; peak fraction on SDS-PAGE, Coomassie; conditions: partners not purified
T1 construct: TatC, integral membrane protein of the Escherichia coli Tat system; protomer molecular weight printed as 28.9 kDa; The printed protomer weight of 28.9 kDa fits the whole TatC protein; also called TatCHis; TatCHis of Tat(A)BCHis; source: E. coli strain DADE (MC4100 ΔtatABCDΔtatE), overproduced from pFAT75CH (TatABCHisDE) or pFAT75CHΔA (TatBCHis); digitonin-solubilized membranes; not shown: His6, …
T1 sequence (looked up): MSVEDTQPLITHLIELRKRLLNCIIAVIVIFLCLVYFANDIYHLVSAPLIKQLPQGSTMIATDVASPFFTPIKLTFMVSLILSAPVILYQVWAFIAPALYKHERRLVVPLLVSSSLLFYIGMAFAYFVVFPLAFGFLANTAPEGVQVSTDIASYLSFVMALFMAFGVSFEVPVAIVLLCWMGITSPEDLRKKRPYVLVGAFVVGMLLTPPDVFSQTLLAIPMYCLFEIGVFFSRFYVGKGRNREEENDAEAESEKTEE

[2] = target: the molecule itself; test: native gel or EMSA; BN-PAGE (5-18% gradient) of digitonin-solubilized whole membranes of strain DADE overproducing TatBHis, TatABCHisDE or TatBCHis; immunoblot with anti-TatB or anti-His tag
[3] = target: the molecule itself; test: native gel or EMSA; BN-PAGE (4-16% gradient) of TatCHis variants purified in digitonin from the Tat wild-type strain C43(DE3); Coomassie stained

B1: TatB, untagged, co-produced with TatCHis (natural protein, Escherichia coli, UniProt P69425 1-171, looked up)
chain: MFDIGFSELLLVFIIGLVVLGPQRLPVAVKTVAGWIRALRSLATTVQNELTQELKLQEFQDSLKKVEKASLTNLTPELKASMDELRQAAESMKRSYVANDPEKASDEAHTIHNPVVKDNEAAHEGVTPAAAQTQASSPEQKPETTPEPVVKPAADAEPKTAAPSPSSSDKP
notes: TatB, integral membrane protein of the Escherichia coli Tat system; protomer molecular weight printed as 18.4 kDa; source: E. coli strain DADE (MC4100 ΔtatABCDΔtatE), overproduced from pFAT75CH or pFAT75CHΔA; digitonin-solubilized membranes
- binding result [1]: binds

B2: TatB with a C-terminal hexa-histidine tag (natural protein, Escherichia coli, UniProt P69425 1-171, looked up)
chain: MFDIGFSELLLVFIIGLVVLGPQRLPVAVKTVAGWIRALRSLATTVQNELTQELKLQEFQDSLKKVEKASLTNLTPELKASMDELRQAAESMKRSYVANDPEKASDEAHTIHNPVVKDNEAAHEGVTPAAAQTQASSPEQKPETTPEPVVKPAADAEPKTAAPSPSSSDKP
notes: TatB, integral membrane protein of the Escherichia coli Tat system; protomer molecular weight printed as 18.4 kDa; Produced in the absence of any other Tat components; detected with anti-TatB serum; also called TatBHis; source: E. coli strain DADE (MC4100 ΔtatABCDΔtatE), overproduced from pFAT586; digitonin-solubilized membranes
- stoichiometry N [2]: ≤ 4

B3: TatC with a hexa-histidine tag on the C-terminus, produced alone from pFAT588 (natural protein, Escherichia coli (strain MC4100), UniProt P69423 1-258, looked up)
chain: MVSVEDTQPLITHLIELRKRLLNCIIAVIVIFLCLVYFANDIYHLVSAPLIKQLPQGSTMIATDVASPFFTPIKLTFMVSLILSAPVILYQVWAFIAPALYKHERRLVVPLLVSSSLLFYIGMAFAYFVVFPLAFGFLANTAPEGVQVSTDIASYLSFVMALFMAFGVSFEVPVAIVLLCWMGITSPEDLRKKRPYVLVGAFVVGMLLTPPDVFSQTLLAIPMYCLFEIGVFFSRFYVGKGRNREEENDAEAESEKTEE
notes: TatC, Escherichia coli; tatC gene amplified from chromosomal DNA of strain MC4100, cloned NcoI/BglII into pQE60; protomer molecular weight printed as 28.9 kDa; also called TatCHis; source: E. coli strain C43(DE3) or its ΔtatABC derivative C43ΔTat(DE3), overproduced from pFAT588; digitonin-solubilized membranes; not shown: His6, C-terminal, kept
- stoichiometry N [3]: ≤ 7
